Results as given in doi:10.1101/296517 (bioRxiv, 2018).
Where “and” joins values, the source holds several entries; their conditions need not be identical. Identical values can stand only once.

B1: Rab6a GTPase (natural protein, human (endogenous in LNCaP), UniProt P20340 1-208, looked up)
chain: MSTGGDFGNPLRKFKLVFLGEQSVGKTSLITRFMYDSFDNTYQATIGIDFLSKTMYLEDRTVRLQLWDTAGQERFRSLIPSYIRDSTVAVVVYDITNVNSFQQTTKWIDDVRTERGSDVIIMLVGNKTDLADKRQVSIEEGERKAKELNVMFIETSAKAGYNVKQLFRRVAAALPGMESTQDRSREDMIDIKLEKPQEQPVSEGGCSC
B2: GRASP65 (natural protein)
chain: not shown

What was measured:
[1] = molecular target: the molecule itself; assay: Western blot
[2] = molecular target: the molecule itself; assay: Western blot of lysates

Protein	stoichiometry N [1]	stoichiometry N [2]
B1	2	
B2		2 and 4
